T1: human CD19 exon1-3-His tag protein (human, UniProt P15391 20-186, limits assumed)
T1 construct: membrane-distal part of the extracellular region, made in HEK293E cells; not shown: His tag
T1 sequence (looked up): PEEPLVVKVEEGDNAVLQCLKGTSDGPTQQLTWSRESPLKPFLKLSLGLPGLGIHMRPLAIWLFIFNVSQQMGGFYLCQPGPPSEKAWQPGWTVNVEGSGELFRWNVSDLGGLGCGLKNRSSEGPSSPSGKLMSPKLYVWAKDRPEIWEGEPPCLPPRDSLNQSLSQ

T2: Human CD19-his protein (human, UniProt P15391 20-291)
T2 construct: bought protein; also called recombinant human CD19-His; CD19 full-length protein; not shown: His tag
T2 sequence (looked up): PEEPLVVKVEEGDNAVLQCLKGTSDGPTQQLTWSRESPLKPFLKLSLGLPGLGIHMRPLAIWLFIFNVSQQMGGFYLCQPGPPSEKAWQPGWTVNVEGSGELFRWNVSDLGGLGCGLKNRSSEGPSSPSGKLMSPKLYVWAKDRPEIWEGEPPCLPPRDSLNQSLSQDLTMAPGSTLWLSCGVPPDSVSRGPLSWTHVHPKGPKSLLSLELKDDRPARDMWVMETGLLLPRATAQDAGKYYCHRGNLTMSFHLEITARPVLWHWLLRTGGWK

T3: human CD19 exon1-3-his protein (human, UniProt P15391 20-186, limits assumed)
T3 construct: made in HEK293E cells; also called membrane-distal end; not shown: His tag
T3 sequence (looked up): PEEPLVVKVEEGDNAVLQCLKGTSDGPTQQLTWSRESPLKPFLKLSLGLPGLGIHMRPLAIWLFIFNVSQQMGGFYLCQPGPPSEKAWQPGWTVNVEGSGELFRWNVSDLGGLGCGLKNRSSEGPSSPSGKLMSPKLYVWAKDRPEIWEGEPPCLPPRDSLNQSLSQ

T4: murine CD19 protein (murine, UniProt P25918 17-287, limits assumed)
T4 construct: bought protein; also called commercial murine CD19
T4 sequence (looked up): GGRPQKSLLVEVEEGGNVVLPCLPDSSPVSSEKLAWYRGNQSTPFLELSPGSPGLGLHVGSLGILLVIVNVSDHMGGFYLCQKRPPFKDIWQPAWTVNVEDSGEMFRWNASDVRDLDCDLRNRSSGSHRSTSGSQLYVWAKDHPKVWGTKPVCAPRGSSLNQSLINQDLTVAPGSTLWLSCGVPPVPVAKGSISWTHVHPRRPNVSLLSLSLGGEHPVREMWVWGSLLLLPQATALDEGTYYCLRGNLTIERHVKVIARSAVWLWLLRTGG

T5: Human CD19-his protein (human, UniProt P15391 20-291)
T5 construct: bought protein; also called human CD19 protein; recombinant human CD19-His; not shown: His tag
T5 sequence (looked up): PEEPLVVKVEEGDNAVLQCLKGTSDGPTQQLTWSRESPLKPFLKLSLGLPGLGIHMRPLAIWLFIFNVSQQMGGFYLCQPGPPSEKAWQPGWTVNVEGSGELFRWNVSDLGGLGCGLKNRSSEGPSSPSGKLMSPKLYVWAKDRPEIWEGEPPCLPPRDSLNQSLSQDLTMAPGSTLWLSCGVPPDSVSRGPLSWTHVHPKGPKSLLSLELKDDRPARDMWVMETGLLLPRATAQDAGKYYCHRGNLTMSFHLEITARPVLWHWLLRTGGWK

B1: F3.148.10 (antibody, human IgG1, V domains shown)
VH: EVQLQQSGAELVRPGSSVTMSCKTSGYTFTNYGINWVKQRPGQGLEWIGYIFIGNDYTEYNEKFKGKATLTSDTSSSTAYMQLSSLTSEDSAIYFCTRFYSNYYGMDPWGQGTSVTVSS
VL: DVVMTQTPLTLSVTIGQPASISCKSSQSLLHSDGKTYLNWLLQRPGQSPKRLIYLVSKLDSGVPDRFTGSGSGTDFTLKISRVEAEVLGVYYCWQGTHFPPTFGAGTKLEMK
notes: human-murine chimeric antibody, human IgG1 constant
B2: F3.74.4 (antibody, human IgG1, V domains shown)
VH: QVQLQQSGAELVRPGASVTLSCKASGYTFTDYEMHWVKQTPVHGLEWIGGIAPETGLTTYNQKFEDKAILTADKSSRTAYMELRSLTSEDSAVYFCNPNNYGLWGTGTTVTVSS
VL: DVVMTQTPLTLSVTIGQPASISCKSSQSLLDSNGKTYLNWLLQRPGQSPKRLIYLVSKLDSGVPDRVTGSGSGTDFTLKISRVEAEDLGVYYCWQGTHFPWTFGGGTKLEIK
notes: as for B1
B3: F3.109.1 (antibody, human IgG1, V domains shown)
VH: EVQLQQSGAELVRPGSSVKMSCKTSGYTFTSYGINWVKQRPGQGLEWIGYIYIGNDYTEFNEKFKGKATLTSDTSSSTAYMQLSSLTSEDSAIYFCARFYSNSDPMDYWGHGTSVTVSS
VL: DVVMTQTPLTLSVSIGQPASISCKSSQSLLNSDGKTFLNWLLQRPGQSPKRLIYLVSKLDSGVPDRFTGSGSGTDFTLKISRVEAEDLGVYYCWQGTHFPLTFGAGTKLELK
notes: as for B1
B4: F3.114.12 (antibody, human IgG1, V domains shown)
VH: DVQLQESGPGLVKPSQSLSLTCSVTGYSITSGYDWNWIRQFPGNKLEWMGYISYDGKNNYNPSLRNRISITRDTSKNQFFLKLNSVTTEDTATYYCARRDLRGYFDVWGTGTTVTVSS
VL: DIVLTQSPATLSVTPGDRVSLSCRASQSISNYLHWYQQKSHESPRLLIKYASLSISGIPSRFSGSGSGTDFTLSINSVETEDFGVYFCQQSNSWPLTFGAGTKLELK
notes: as for B1
B5: F5.10.6 (antibody, human IgG1, V domains shown)
VH: DVQLQESGPGLVKPSQSLSLTCSVTDYSITSGYYWTWIRQFPGNKLEWMGYISYDGSTNYNPSLKNRFSITRDTSKNQFFLKLNSVIIEDTATYYCARDRMSTTWYFDVWGTGTTVTVSS
VL: DIVLTQSPASLAVSLGQRATISCRASESVDNYGISFMHWYQQKPGQPPKLLIYRASKTESGIPARFSGSGSRTDFTLTINPVETDDVATYYCQQSNKYPRTFGGGTKVEIK
notes: as for B1
B6: F4.272.13 (antibody, human IgG1, V domains shown)
VH: QVQLKESGPGLVAPSQSLSITCTVSGFSLTDYGVSWIRQPPGKGLEWLGVIWGSETTFYNSALKSRLSISKDNSKSQLFLQMNSLQADDTAIYYCAKHHYYGGSFSMDYWGQGTSVTVSS
VL: DIQMTQTTSSLSASLGDRVTISCRASQDINNYLNWYQQKPDGTVKFLIYYTSRLHSGVPSRFSGSGSGTDYSLTISDLEQEDIATYFCQQGNTLPYTFGGGTKLEIK
notes: as for B1
B7: F4.276.12 (antibody, human IgG1, V domains shown)
VH: EIQLQQSGPELVKPGASVKVSCKASGYAFSAYNMYWVKQSHGKSLEWIGYIDPYNGGTNYNQKFKGKATLTVDKSSSTAYMHLNSLTSEDSAVYYCARDGYEVTYWGQGTLVTVSA
VL: QIVLTQSPALMSASLGEEITLTCSASSSVTYMHWSQQKSGTSPRLLIYSTSNLASGVPSRFSGSGSGTFYSLTISSVEAEDAADYYCHQWSSYPWTFGGGTKLEIK
notes: as for B1
B8: F3.83.9 (antibody, human IgG1, V domains shown)
VH: DVQLQESGPGLVKPSQSLSLTCSVTGYSITSGYYWNWIRQFPGNKLEWMGYISYDGGNNYNPSLKNRISITRDTSKNQFFLKLNSVTTEDTATYFCAREDYSNWYFDVWGTGTTVTVSS
VL: DIVLTQSPASLAVSLGQRATISCRASQSVSKSSYSYMHWYQQKPGQSPKLLIKYASILKSGVPARFSGSGSGTDFTLNIHPVEEEDTATYYCQHSWEIPWTFGGGTKLEIK
notes: human-murine chimeric antibody, human IgG1
B9: F3.114.12 (antibody, human IgG1, V domains shown)
VH: DVQLQESGPGLVKPSQSLSLTCSVTGYSITSGYDWNWIRQFPGNKLEWMGYISYDGKNNYNPSLRNRISITRDTSKNQFFLKLNSVTTEDTATYYCARRDLRGYFDVWGTGTTVTVSS
VL: DIVLTQSPATLSVTPGDRVSLSCRASQSISNYLHWYQQKSHESPRLLIKYASLSISGIPSRFSGSGSGTDFTLSINSVETEDFGVYFCQQSNSWPLTFGAGTKLELK
notes: as for B8
B10: F3.126.15 (antibody, human IgG1, V domains shown)
VH: QVQLQQPGAELVMPGASVKLSCKASGYTFTSYWMHWVKQRPGQGLEWIGEIDPSDSYTTYNQNFKGKATLTVDISTSTAYIQLSNLTSEDSAVYYCARLTGNYIHYWGQGTTLTVSS
VL: DIVMTQSHKFMSTSVGDRVSITCKASQDVSPAVAWYQQRPGQCPKLLIFSSSYRSTGVPDRFTGSGSGTDFTFTISSVQAEDLAVYYCQQHYSLPLTFGAGTKLELK
notes: as for B8

Columns and labels:
[1] = target: T1, human CD19 exon1-3-His tag protein; test: ELISA on coated human CD19 exon 1-3-His
Protocol: (§1) Human CD19-his protein (purchased from ACROBiosystems, catalog number: CD9-H52H2) was diluted with PBS to a final concentration of 4 μg/mL, and then added to a 96-well ELISA plate at 100 μl/well. The plate was sealed with a plastic film and incubated overnight at 4° C., the plate was washed 2 times with PBS the next day, and then a blocking solution [PBS+2% (w/w) BSA] was added for blocking at room temperature for 2 h. The blocking solution was poured off, and 100 nM gradiently diluted CD19 chimeric antibody or control antibody was added at 50 μl/well. After incubation at 37° C. for 2 h, the plate was washed 3 times with PBS. […] TMB substrate was added at 50 μl/well, and incubated at room temperature for 10 min, and then a stop solution (1.0 N HCl) was added at 50 μl/well. The OD450 nm values were read by an ELISA microplate reader (Multimode Plate Reader, EnSight, purchased from Perkin Elmer).
(§2) CD19 protein contains 4 exons in the extracellular region, in which exons 1-3 are located at the membrane-distal end and exon 4 is located at the membrane-proximal end. […] To identify the distribution of antigen binding epitopes of the chimeric antibodies, human CD19 exon 1-3-His (membrane-distal end) was used to coat at 2 μg/mL according to the ELISA method in example 5.1.

Human CD19-his protein [2] = target: T2, Human CD19-his protein; test: SPR Biacore, Ab captured on Protein A, CD19-His analyte
Protocol: A sample buffer and a running buffer were HBS-EP+ (10 mM HEPES, 150 mM NaCl, 3 mM EDTA and 0.05% surfactant P20) (GE Healthcare; BR-1006-69). The flow-through cell was set to 25° C. The sample block was set to 16° C. Both were pretreated with the running buffer. In each cycle, an antibody to be detected was first captured with a Protein A chip, and then a single concentration of CD19 antigen protein was injected. The binding and dissociation processes of the antibody and the antigen protein were recorded, and finally Glycine pH 1.5 (GE Healthcare; BR-1003-54) was used to complete chip regeneration. The binding was measured by injecting different concentrations of recombinant human CD19-His proteins in a solution for 240 s with a flow rate of 30 μl/min. The concentration started from 200 nM (see the detailed results for the actual concentration in the test) and was diluted at 1:1, making a total of 5 concentrations. The dissociation phase was monitored for up to 600 s and was triggered by switching from sample solution to running buffer. The surface was regenerated by washing with a 10 mM glycine solution (pH 1.5) for 30 s at a flow rate of 30 μl/min. Bulk refractive index difference was corrected by subtracting the response obtained from the goat anti-human Fc surface. Blank injection was also subtracted (=double reference). For calculation of apparent KD and other kinetic parameters, Langmuir 1:1 model was used.

[3] = target: T3, human CD19 exon1-3-his protein; test: ELISA, coated at 2 ug/mL
Protocol: as §1, §2

murine CD19 protein = target: T4, murine CD19 protein; test: ELISA, coated murine CD19
Protocol: as §1
In order to detect the species cross-binding activity of the chimeric antibodies, an ELISA plate was coated with commercial murine CD19 (ACROBiosystems, catalog number: 50510-M08H) and monkey CD19 (ACROBiosystems, catalog number: 90051-C08H), respectively, and the ELISA detection was performed according to the method in example 5.1.

Human CD19-his protein [4] = target: T5, Human CD19-his protein; test: ELISA, antibody at 10 nM
Protocol: as §1

Human CD19-his protein [5] = target: T5, Human CD19-his protein; test: ELISA, antibody at 100 nM
Protocol: as §1

Human CD19-his protein [6] = target: T5, Human CD19-his protein; test: ELISA, antibody at 0.01 nM
Protocol: as §1

Human CD19-his protein [7] = target: T5, Human CD19-his protein; test: ELISA, antibody at 0.10 nM
Protocol: as §1

Human CD19-his protein [8] = target: T5, Human CD19-his protein; test: ELISA, antibody at 1.00 nM
Protocol: as §1

Human CD19-his protein [9] = target: T5, Human CD19-his protein; test: ELISA, antibody at 0.001 nM
Protocol: as §1

Human CD19-his protein [10] = target: T5, Human CD19-his protein; test: ELISA, antibody at 0.0001 nM
Protocol: as §1

Row | Binder | EC50 (read off the curve) [1] [nM] | Kd (Human CD19-his protein [2]) [nM] | koff (Human CD19-his protein [2]) [s⁻¹] | kon (Human CD19-his protein [2]) [M⁻¹ s⁻¹] | binding result [1] | binding result [3] | binding result (murine CD19 protein) | OD450 (Human CD19-his protein [4]) | OD450 (Human CD19-his protein [5]) | OD450 (Human CD19-his protein [6]) | OD450 (Human CD19-his protein [7]) | OD450 (Human CD19-his protein [8]) | OD450 (Human CD19-his protein [9]) | OD450 (Human CD19-his protein [10])
1 | B1 | ~0.2 | 5.32 | 0.00119 | 224000 |  |  |  |  |  |  |  |  |  | 
2 | B2 | ~0.3 | 18.7 | 0.000879 | 47100 |  |  |  |  |  |  |  |  |  | 
3 | B3 | ~0.1 | 5.67 | 0.00108 | 190000 |  |  |  |  |  |  |  |  |  | 
4 | B4 |  | 6.03 | 0.000465 | 77000 | no binding (tested: 100 nM) |  |  |  |  |  |  |  |  | 
5 | B5 |  | 1.84 | 0.000151 | 82100 | no binding (tested: 100 nM) |  |  |  |  |  |  |  |  | 
6 | B6 |  | 0.294 | 6.51e-05 | 221000 | no binding (tested: 100 nM) |  |  |  |  |  |  |  |  | 
7 | B7 |  | 3.33 | 0.00081 | 243000 | no binding (tested: 100 nM) |  |  |  |  |  |  |  |  | 
8 | B8 |  |  |  |  |  | no binding | no binding | 0.6 | 0.94 | 0.06 | 0.11 | 0.36 | 0.05 | 0.05
9 | B9 |  |  |  |  |  | no binding | no binding | 0.46 | 0.61 | 0.05 | 0.08 | 0.24 | 0.05 | 0.05
10 | B10 |  |  |  |  |  | no binding | no binding | 0.46 | 0.7 | 0.05 | 0.07 | 0.2 | 0.05 | 0.05

Source: patent US20250042994A1 (HAINAN SIMCERE ZAIMING PHARMACEUTICAL, published 2025)
